# Experimental data published in US20140206628A1 (University of Washington, published 2014).
# Where two headings read alike, the source gives them in different places.
# Assays:
# [1] = biological target: T1, A/South Carolina/1/1918 (H1N1) hemagglutinin ectodomain, biotinylated (Influenza A virus A/South …)
# [2] = biological target: T1, A/South Carolina/1/1918 (H1N1) …; remark: listed apart in the source
# [3] = biological target: T1, A/South Carolina/1/1918 (H1N1) …; remark: listed apart in the source
# [4] = biological target: T1, A/South Carolina/1/1918 (H1N1) …; remark: listed apart in the source
Binder,Kd [1],fold increase of binding affinity relative to HB36 [2],Kd [3],Kd [4]
HB36.1 (Asp47Ser) (designed binder) MSNAMDGQQLNRLLLEWIGAWDPFGLGKDAYDVEAEAVLQAVYETESAFDLAMRIMWIYAFAFNRPIPFPHAQKLARRLLELKQAASSPLPLE,5 nM,~40 fold,2 to 5 nM,–
"HB80.1 (Met26Thr, Asn36Lys) (designed binder) MASTRGSGRPWDFSENLAFELALAFTNKDTPDRWAKVAQYVSGRTPEEVKKHYEILVEDIKYIESGKVPFPNYRTTGGNMKTDEKRFRNLKIRLE",7.5 nM,–,–,7.5 nM
